Measurements as given in US20200017592A1 (Regeneron, published 2020).

T1: full-length human IL-36R on cells (human, UniProt Q9HB29 20-575)
T1 sequence (looked up): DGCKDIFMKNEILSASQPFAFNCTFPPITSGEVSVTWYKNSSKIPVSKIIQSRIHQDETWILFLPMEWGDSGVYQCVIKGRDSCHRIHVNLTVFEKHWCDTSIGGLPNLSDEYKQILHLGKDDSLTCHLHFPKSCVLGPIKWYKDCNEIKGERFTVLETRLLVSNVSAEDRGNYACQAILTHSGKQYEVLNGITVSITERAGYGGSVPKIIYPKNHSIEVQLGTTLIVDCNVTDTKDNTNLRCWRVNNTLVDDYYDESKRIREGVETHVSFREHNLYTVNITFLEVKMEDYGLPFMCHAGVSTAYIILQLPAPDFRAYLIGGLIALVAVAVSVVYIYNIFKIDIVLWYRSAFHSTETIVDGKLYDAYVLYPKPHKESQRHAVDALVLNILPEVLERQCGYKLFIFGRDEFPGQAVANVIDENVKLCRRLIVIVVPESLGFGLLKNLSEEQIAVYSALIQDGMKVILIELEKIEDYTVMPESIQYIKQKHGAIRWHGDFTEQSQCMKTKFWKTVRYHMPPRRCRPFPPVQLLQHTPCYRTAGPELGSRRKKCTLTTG

T2: Macaca fascicularis IL-36R on cells (Macaca fascicularis, UniProt A0A2K5WSK9 20-558)
T2 sequence: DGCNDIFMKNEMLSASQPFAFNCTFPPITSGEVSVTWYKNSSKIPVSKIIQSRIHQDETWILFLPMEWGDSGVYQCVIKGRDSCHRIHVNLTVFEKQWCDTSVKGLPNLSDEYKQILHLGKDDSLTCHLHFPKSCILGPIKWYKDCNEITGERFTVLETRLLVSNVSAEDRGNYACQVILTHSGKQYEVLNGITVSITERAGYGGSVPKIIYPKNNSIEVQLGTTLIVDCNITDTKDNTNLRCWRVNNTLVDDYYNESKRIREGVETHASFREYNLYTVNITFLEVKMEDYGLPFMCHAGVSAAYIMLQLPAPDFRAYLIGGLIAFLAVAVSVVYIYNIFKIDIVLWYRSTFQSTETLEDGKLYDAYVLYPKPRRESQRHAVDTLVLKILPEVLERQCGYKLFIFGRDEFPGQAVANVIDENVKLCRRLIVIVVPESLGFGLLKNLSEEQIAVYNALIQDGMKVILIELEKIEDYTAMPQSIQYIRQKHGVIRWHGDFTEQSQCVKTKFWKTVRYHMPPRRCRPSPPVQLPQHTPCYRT

B1: H4H14728P (antibody, human IgG4 S228P, kappa, V domains shown)
VH: QVQLQESGPGLVKPSQTLSLTCTVSGGSISSADYYWSWIRQHPGKGLEWIGSIYYTGSTYYNPSLKSRLTISIDTSENQFSLKLTSLTAADTAVYYCASEEANWGSHFDSWGQGTLVTVSS
VL: DIQMTQSPSSLSASVGDRVTITCRASQSIDNFLNWYQQKPGKAPKLLIYAASSLQSGVPSRFSGSGSGTDFTLTISSLQPEDFASYYCQHSHSAHPITFGQGTRLEIKR
B2: H4H14699P2 (antibody, human IgG4 S228P, kappa, V domains shown)
VH: EVQLVESGGGLVQPGRSLRLSCAASGFTFDDYAIHWVRQAPGKGLEWVSVISWNSDIIGYADSVKGRFTVSRDNAKNSLYLQMNSLRTEDTALYYCAKGYNWNFFDYWGQGTLVTVSS
VL: EIVLTQSPATLSLSPGERATLSCRASQSVSSYLAWYQQKPGQAPRLLIYNAANRATDIPARFSGSGSGTDFTLTISSLEPEDFAVYYCQQRSNWPLTFGGGTKVEIKR
notes: Fully human anti-IL-36R antibody
B3: H4H14700P2 (antibody, human IgG4 S228P, kappa, V domains shown)
VH: EVQLVESGGGLVQPGRSLRLSCAASGFTFDDYAMHWVRQTPGKGLEWVSVISWNSDVIAYSDSVKGRFTISRDNAKNSLYLQMNSLGTEDTALYYCAKGHNWNFFDYWGQGTLVTVSS
VL: EIVLTQSPATLSLSPGERATLSCRASQSVSSYLAWYQQKPGQAPRLLIYNVANRATDIPARFSGSGSGTDFTLTISGLEPEDFAVYFCQQRSNWPLTFGGGTKVEIKR
B4: H4H14734P2 (antibody, human IgG4 S228P, kappa, V domains shown)
VH: EVQLVESGGGLVKPGGSLRLSCAASGFIFSNAWMNWVRQAPGKGLAWVGRIKTETDGGTTDYAAPVKGRFTISRDDSKNTLYLQMNSVKTEDTAVYYCTGGYSYGDDSSSWNEGYYYYGMDVWGQGTTVTVSS
VL: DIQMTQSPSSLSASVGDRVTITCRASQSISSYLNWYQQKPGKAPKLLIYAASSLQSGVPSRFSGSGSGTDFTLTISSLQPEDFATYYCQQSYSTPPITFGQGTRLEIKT
B5: H4H14709P (antibody, human IgG4 S228P, kappa, V domains shown)
VH: EVQLVESGGGLVQPGGSLRLSCAASGFTFSDYAMSWVRQAPGKGLEWVSGISGNGGDTYYGDFVKGRFTISRDNSKNTLYLQMNSLRGEDTAAYFCVIDLDYWGQGTLVTVSS
VL: DIQMTQSPSTLSASEGDRVTITCRASQSISSWLAWYQQKPGKAPRLLIYKASILGDGVPSRFSGSGSGTEFTLTISSLQPDDFATYYCHQYNSYLWTFGQGTKVEIKR
B6: H4H14758P (antibody, human IgG4 S228P, kappa, V domains shown)
VH: EVQLVESGGGLVQPGRSLRLSCAASGFTFDDYAMHWVRQAPGKGLEWVSSVRWNGGIIGYADSVKGRFTISRDNAKNSLYLQMNSLRPEDTALYYCAKDIGDVLTGYYGEYGMDVWGQGTTVTVSS
VL: DIQMTQSPSSLSASVGDRVTIACRASQSITTYLNWYQQKPGKAPKLLIYAASSLQSGVPSRFSGSGSGTDFTLTISSLQPEDFATYYCQQSYISPYTFGQGTKLEIKR

What was measured:
[1] = target: T1, full-length human IL-36R on cells; assay: cell-based or functional assay
[2] = target: T2, Macaca fascicularis IL-36R on cells; assay: cell-based or functional assay
[3] = target: T3, recombinant human IL-36R extracellular domain expressed with a C-terminal myc-myc-hexahistidine tag (human, UniProt Q9HB29 20-337); assay: SPR (Biacore 4000), mAb captured on anti-human Fc, 25°C
T3 construct: also called hIL-36R-MMH; hIL-36R.mmH
Description: (§1) Equilibrium dissociation constants (KD values) for IL-36R binding to purified anti-IL-36R antibodies were determined using a real-time surface plasmon resonance biosensor using a Biacore 4000 instrument. The Biacore sensor surface was first derivatized by amine coupling with a monoclonal mouse anti-human Fc antibody (GE, # BR-1008-39) to capture anti-IL-36R monoclonal antibodies. All binding studies were performed in 0.01 M Hepes pH 7.4, 0.15 M NaCl, 3 mM EDTA, and 0.05% v/v Surfactant Tween-20 (HBS-ET running buffer) at 25° C. and 37° C. Different concentrations of IL-36R reagents, human IL-36R extracellular domain expressed with a C-terminal myc-myc-hexahistidine tag (hIL-36R-MMH), Macaca fascicularis IL-36R extracellular domain expressed with a C-terminal myc-myc-hexahistidine tag (mfIL-36R-MMH: mROR1 signal sequence (M1-A29). Macaca fascicularis IL36R_ecto domain (D20-A336).mycmycHis6), human IL-36R extracellular domain expressed with a C-terminal mouse IgG2a Fc tag (hIL-36R-mFc: mROR1 signal sequence (M1-A29)-human IL36R (D20-Y337)-mouse IgG2aFc (E98-K330)) or an in-line fusion protein of human IL-36R extracellular domain and IL1RAcP extracellular domain expressed with mouse IgG2a Fc tag (hIL-36R-Trap-mFc: mROR1 signal sequence (M1-A29)-human IL36R ecto domain (D20-Y337)-human IL1RacP ecto domain(S21-E359)-mouse IgG2aFc) in HBS-ET running buffer (ranging from 100 nM to 3.7 nM, 3-fold dilutions) were injected over the anti-IL-36R antibody captured surface for 4 minutes at a flow rate of 30 μL/minute and their dissociation in HBS-ET running buffer was monitored for 10 minutes. Kinetic association rate constant (kₐ) and dissociation rate constant (kd) were determined by fitting the real-time sensorgrams to a 1:1 binding model using Scrubber 2.0c curve fitting software. Binding dissociation equilibrium constants (KD) and dissociative half-lives (t_{1/2}) were calculated from the kinetic rate constants as: […]

[4] = target: T3, recombinant human IL-36R extracellular …; assay: SPR (Biacore 4000), mAb captured on anti-human Fc, 37°C
Description: as §1

Binder | IC50 [M], NFκB-luciferase, 10 pM hIL-36γ [1] | IC50 [M], NFκB-luciferase, 15 pM hIL-36β [1] | IC50 [M], NFκB-luciferase, 20 pM hIL-36α [1] | Max Inhibition (%), NFκB-luciferase, 10 pM hIL-36γ [1] | Max Inhibition (%), NFκB-luciferase, 15 pM hIL-36β [1] | Max Inhibition (%), NFκB-luciferase, 20 pM hIL-36α [1] | IC50 [M], NFκB-luciferase, 300 pM hIL-36γ [2] | IC50 [M], NFκB-luciferase, 500 pM hIL-36α [2] | IC50 [M], NFκB-luciferase, 600 pM hIL-36β [2] | Max Inhibition (%), NFκB-luciferase, 300 pM hIL-36γ [2] | 100 nM hIL-36R-MMH Bound (RU) [3] | Kd [3] | koff [3] | kon [3] | t½ [3] | 100 nM hIL-36R-MMH Bound (RU) [4] | Kd [4] | koff [4] | kon [4] | t½ [4] | further results
B1 | 1.2e-09 M | 1.3e-09 M | 9.7e-10 M | 99% | 99% | 97% | 2e-09 M | 1.3e-09 M | 1.5e-09 M | 93% | 69 RU | 7.87 nM | 0.000773 s⁻¹ | 98300 M⁻¹ s⁻¹ | 15 min | 93 RU | 21.5 nM | 0.00293 s⁻¹ | 136000 M⁻¹ s⁻¹ | 4 min | Max Inhibition (%), NFκB-luciferase, 500 pM hIL-36α [2]: 93%; Max Inhibition (%), NFκB-luciferase, 600 pM hIL-36β [2]: 95%
B2 | 1.4e-10 M | 1.3e-10 M | 1.3e-10 M | 99% | 100% | 100% | 2e-10 M | 8.4e-11 M | 1.9e-10 M | 97% | 74 RU | 10.2 nM | 0.00168 s⁻¹ | 165000 M⁻¹ s⁻¹ | 7 min | 89 RU | 29.5 nM | 0.00418 s⁻¹ | 142000 M⁻¹ s⁻¹ | 2.8 min | Max Inhibition (%), NFκB-luciferase, 500 pM hIL-36α [2]: 97%; Max Inhibition (%), NFκB-luciferase, 600 pM hIL-36β [2]: 98%
B3 | 1.2e-10 M | 2e-10 M | 1.9e-10 M | 100% | 100% | 101% | 1.8e-10 M | 1.2e-10 M | 1.8e-10 M | 99% | 67 RU | 4.82 nM | 0.000579 s⁻¹ | 120000 M⁻¹ s⁻¹ | 20 min | 89 RU | 10.5 nM | 0.00184 s⁻¹ | 176000 M⁻¹ s⁻¹ | 6 min | Max Inhibition (%), NFκB-luciferase, 500 pM hIL-36α [2]: 99%; Max Inhibition (%), NFκB-luciferase, 600 pM hIL-36β [2]: 99%
B4 | – | – | – | – | – | – | – | – | – | – | 22 RU | 12.2 nM | 0.000404 s⁻¹ | 33200 M⁻¹ s⁻¹ | 29 min | 25 RU | 13.9 nM | 0.000749 s⁻¹ | 53900 M⁻¹ s⁻¹ | 15 min | –
B5 | 1.3e-10 M | – | 1.4e-10 M | 24% | – | 22% | – | – | – | – | 64 RU | 4.09 nM | 0.000296 s⁻¹ | 72300 M⁻¹ s⁻¹ | 39 min | 106 RU | 4.25 nM | 0.000554 s⁻¹ | 131000 M⁻¹ s⁻¹ | 21 min | –
B6 | 1.6e-10 M | – | 1.2e-10 M | 57% | – | 100% | – | – | – | – | 87 RU | 7.63 nM | 0.000923 s⁻¹ | 121000 M⁻¹ s⁻¹ | 13 min | 111 RU | 15 nM | 0.00237 s⁻¹ | 158000 M⁻¹ s⁻¹ | 5 min | –
